Among the data in PMC10397247 are interaction score values, retold here.

What all share (assay): two-hybrid library CCNG1;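 further: natural log of median RNA to DNA barcode read ratio; higher means stronger binding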
One assay has as its target T1, 4H72-bA.
T1 chain: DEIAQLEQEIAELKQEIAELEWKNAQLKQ

The next assay has as its target T2, 4H953-bA.
T2 chain: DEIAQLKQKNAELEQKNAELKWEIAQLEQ

In another assay the target is T3, 4H687-bA.
T3 chain: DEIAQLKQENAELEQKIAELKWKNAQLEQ

The next assay concerns the target T4, 4H918-bA.
T4 chain: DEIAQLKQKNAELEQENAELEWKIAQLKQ

The next assay deals with T5, O13-bH.
T5 chain: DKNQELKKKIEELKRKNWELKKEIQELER

For the next assay, the target named is T6, 4H754-bA.
T6 chain: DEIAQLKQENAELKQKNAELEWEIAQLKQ

In a further assay the target is T7, 4H717-bA.
T7 chain: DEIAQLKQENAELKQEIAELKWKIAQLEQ

In a further assay the target is T8, 4H967-bA.
T8 chain: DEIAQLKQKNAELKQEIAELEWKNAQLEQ

For a further assay, the target named is T9, 4H883-bA.
T9 chain: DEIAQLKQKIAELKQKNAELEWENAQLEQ

The target in a further assay is T10, 4H908-bA.
T10 chain: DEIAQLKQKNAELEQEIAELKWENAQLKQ

Another assay addresses T11, 4H797-bA.
T11 chain: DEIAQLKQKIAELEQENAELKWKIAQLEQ

The target in another assay is T12, 4H3907-bA.
T12 chain: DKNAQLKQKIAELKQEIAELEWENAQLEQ

For the next assay, the target named is T13, 4H3070-bA.
T13 chain: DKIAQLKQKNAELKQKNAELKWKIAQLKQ

The target in another assay is T14, 4H344-bA.
T14 chain: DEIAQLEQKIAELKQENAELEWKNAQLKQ

In the next assay the target is T15, 4H342-bA.
T15 chain: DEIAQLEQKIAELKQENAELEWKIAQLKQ

A further assay addresses T16, 4H496-bA.
T16 chain: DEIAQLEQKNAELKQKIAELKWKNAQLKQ

For another assay, the target named is T17, 4H2619-bA.
T17 chain: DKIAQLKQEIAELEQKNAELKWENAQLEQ

The target in another assay is T18, 4H3632-bA.
T18 chain: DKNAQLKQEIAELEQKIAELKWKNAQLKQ

The target in the next assay is T19, 4H470-bA.
T19 chain: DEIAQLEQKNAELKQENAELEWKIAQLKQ

A further assay addresses T20, 4H3961-bA.
T20 chain: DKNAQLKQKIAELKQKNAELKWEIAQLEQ

A further assay deals with T21, 4H2691-bA.
T21 chain: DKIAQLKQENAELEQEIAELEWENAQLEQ

In another assay the target is T22, 4H363-bA.
T22 chain: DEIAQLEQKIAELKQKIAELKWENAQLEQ

The target in another assay is T23, 4H2745-bA.
T23 chain: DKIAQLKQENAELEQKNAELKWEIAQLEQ

In the next assay the target is T24, 4H3129-bN.
T24 chain: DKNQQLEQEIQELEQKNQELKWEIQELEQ

A further assay has as its target T25, 4H568-bA.
T25 chain: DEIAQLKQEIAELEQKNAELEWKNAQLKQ

In another assay the target is T26, 4H2729-bA.
T26 chain: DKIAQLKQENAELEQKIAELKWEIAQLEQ

In another assay the target is T27, 4H3354-bA.
T27 chain: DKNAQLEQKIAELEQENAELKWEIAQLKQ

The target of another assay is T28, 4H3427-bA.
T28 chain: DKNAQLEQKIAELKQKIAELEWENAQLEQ

For the next assay, the target named is T29, 4H338-bA.
T29 chain: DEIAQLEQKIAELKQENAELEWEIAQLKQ

In the next assay the target is T30, 4H607-bA.
T30 chain: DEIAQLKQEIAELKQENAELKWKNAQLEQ

The next assay deals with T31, 4H2618-bA.
T31 chain: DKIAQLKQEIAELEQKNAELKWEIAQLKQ

A further assay addresses T32, 4H2697-bA.
T32 chain: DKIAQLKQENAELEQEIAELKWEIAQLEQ

A further assay has as its target T33, 4H3782-bA.
T33 chain: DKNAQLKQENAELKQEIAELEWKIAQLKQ

A further assay has as its target T34, 4H3112-bA.
T34 chain: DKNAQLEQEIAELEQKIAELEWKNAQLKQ

Another assay has as its target T35, 4H3855-bA.
T35 chain: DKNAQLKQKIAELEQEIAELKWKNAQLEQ

A further assay concerns the target T36, 4H2576-bA.
T36 chain: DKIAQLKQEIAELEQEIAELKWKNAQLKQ

The target of the next assay is T37, 4H607-bN.
T37 chain: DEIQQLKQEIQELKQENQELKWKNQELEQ

A further assay concerns the target T38, 4H3189-bA.
T38 chain: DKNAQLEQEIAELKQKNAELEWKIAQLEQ

In a further assay the target is T39, 4H2610-bA.
T39 chain: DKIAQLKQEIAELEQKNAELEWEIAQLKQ

A further assay concerns the target T40, 4H370-bA.
T40 chain: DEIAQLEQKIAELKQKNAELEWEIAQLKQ

The target of another assay is T41, 4H462-bA.
T41 chain: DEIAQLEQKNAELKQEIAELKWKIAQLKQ

The next assay has as its target T42, 4H3606-bA.
T42 chain: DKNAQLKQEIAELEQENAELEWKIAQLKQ

Another assay addresses T43, 4H3010-bN.
T43 chain: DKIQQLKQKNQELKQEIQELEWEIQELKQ

The target of another assay is T44, 4H2667-bA.
T44 chain: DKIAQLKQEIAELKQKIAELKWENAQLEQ

The next assay has as its target T45, 4H3185-bA.
T45 chain: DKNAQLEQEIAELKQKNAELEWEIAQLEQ

Another assay deals with T46, 4H1845-bA.
T46 chain: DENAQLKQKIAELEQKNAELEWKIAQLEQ

The target in a further assay is T47, 4H4001-bA.
T47 chain: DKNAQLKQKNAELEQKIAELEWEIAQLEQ

The next assay deals with T48, 4H331-bA.
T48 chain: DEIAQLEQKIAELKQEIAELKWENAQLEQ

A further assay addresses T49, 4H2442-bA.
T49 chain: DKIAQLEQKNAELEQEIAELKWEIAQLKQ

In a further assay the target is T50, 4H3843-bA.
T50 chain: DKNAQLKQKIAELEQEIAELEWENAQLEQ

The target of the next assay is T51, 4H454-bA.
T51 chain: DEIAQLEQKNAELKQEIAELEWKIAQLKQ

The target in the next assay is T52, 4H3497-bA.
T52 chain: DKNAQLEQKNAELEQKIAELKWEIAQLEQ

For DEIAQLKQENAELEQKIAELKWKNAQLEQ [4H687-bA], the interaction score in the assay with 4H72-bA is -0.595; with 4H953-bA it was -1.51; in the assay with 4H687-bA, -1.03; with 4H918-bA, -0.947; with O13-bH, 1.07; with 4H754-bA, -0.491. Moreover, the interaction score with 4H717-bA was -1.32; in the assay with 4H967-bA, 1.07; in the assay with 4H883-bA, -1.57; with 4H908-bA, -0.749; with 4H797-bA, -0.624.
Regarding DKIAQLKQEIAELEQKNAELKWENAQLEQ [4H2619-bA], the interaction score with 4H3907-bA was -0.505; with 4H3070-bA, -0.983; in the assay with 4H344-bA, 2.12; with 4H342-bA it was 1.56; with 4H496-bA, -0.573; with 4H2619-bA it was 0.00432. Moreover, the interaction score is -1.09 with 4H3632-bA; -0.832 in the assay with 4H470-bA; -0.981 in the assay with 4H3961-bA; -0.41 with 4H2691-bA; -0.409 with 4H363-bA; -0.393 in the assay with 4H2745-bA. In addition, the interaction score with 4H3129-bN was -2.48.
Regarding DENAQLKQKIAELEQKNAELEWKIAQLEQ [4H1845-bA], the interaction score was -0.306 in the assay with 4H568-bA; -0.636 in the assay with 4H2729-bA; -0.517 with 4H72-bA; -1.23 in the assay with 4H953-bA; -0.823 with 4H3354-bA; -0.612 with 4H687-bA. Moreover, the interaction score in the assay with 4H3427-bA was -0.783; with 4H338-bA, -1.75; with 4H607-bA, -1.7; in the assay with 4H2618-bA, -0.329; in the assay with 4H2697-bA, -0.601; in the assay with 4H3782-bA, -0.678. For the same molecule, the interaction score with 4H918-bA is -0.752; with 4H3112-bA, -0.795; with 4H3855-bA, -1.1; with 4H2576-bA, 0.69; with 4H754-bA, -0.405; with 4H607-bN it was -0.945. Further, the interaction score with 4H3189-bA was -0.547; in the assay with 4H717-bA, -0.827; with 4H2610-bA it was -0.596; with 4H967-bA it was -0.617; with 4H370-bA it was -0.74; in the assay with 4H462-bA, -0.986. Also, the interaction score with 4H3606-bA is -1.46; with 4H883-bA, -0.795; in the assay with 4H3010-bN, 0.0715; with 4H2667-bA, 0.247; with 4H3185-bA, -0.124; with 4H1845-bA it was 0.564. The interaction score with 4H908-bA is -1.42; with 4H4001-bA, -0.341; with 4H331-bA it was -0.344; with 4H797-bA it was -0.424; with 4H2442-bA, -0.649; in the assay with 4H3843-bA, -0.572. This molecule showed an interaction score with 4H454-bA of -0.0982.
Consider DKIAQLEQKNAELEQEIAELKWEIAQLKQ [4H2442-bA], for which the interaction score in the assay with 4H568-bA was -1.89; with 4H2729-bA, 1.52; in the assay with 4H72-bA, -1.46; with 4H953-bA, -1.68; in the assay with 4H3354-bA, -0.829; in the assay with 4H687-bA, -0.225. For the same molecule, the interaction score is 0.0308 with 4H3427-bA; -0.0859 in the assay with 4H338-bA; -1.4 with 4H607-bA; 0.238 with 4H2618-bA; 1.63 with 4H3497-bA; -1.13 in the assay with 4H3782-bA. Moreover, the interaction score with 4H918-bA is -1.46; with 4H3112-bA, -0.0125; in the assay with 4H3855-bA it was -0.595; with 4H2576-bA, -0.202; in the assay with 4H754-bA, 0.0444; in the assay with 4H717-bA, -0.902. Further, the interaction score was -1.64 in the assay with 4H967-bA; -1.15 with 4H883-bA; -0.365 with 4H2667-bA; -0.212 with 4H3185-bA; -0.745 with 4H908-bA; 0.5 with 4H4001-bA. The interaction score in the assay with 4H331-bA was -1.21; with 4H797-bA, -1.24; with 4H2442-bA it was 1.33; with 4H454-bA it was 0.831.
